Measurements: the supplement of paper PMC7877785
± gives the uncertainty stated by the source.

Test: self-splicing fitness, log relative to wild type (ln ratio); higher = more splicing; Tetrahymena group I intron in knt gene, E. coli kanamycin selection, DiMSum; sequences stand for … in CUCUCU…GGAGGGAAAAGUUAUCAGGCAUGCACCUGGUAGCUAGUCUUUAAACCAAUAGAUUGCAUCGGUUUAAAAGGCAAGACCGUCAAAUUGCGGGAAAGGGGUCAACAGCCGUUCAGUACCAAGUCUCAGGGGAAACUUUGAGAUGGCCUUGCAAAGGGUAUGGUAAUAAGCUGACGGACAUGGUCCUAACCACGCAGCCAAGUCCUAAGUCAACAGAUCUUCUGUUGAUAUGGAUGCAGUUCACAGACUAAAUGUCGGUCGGGGAAGAUGUAUUCUUCUCAUAAGAUAUAGUCGGACCUCUCCUUAAUGGGAGCUAGCGGAUGAAGUGAUGCAACACUGGAGCCGCUGGGAACUAAUUUGUAUGCGAAAGUAUAUUGAUUAGUUUUGGAGUACUCGUGGUCG
Outline: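 Six replicate transformations of E. coli BL21(DE3) with a pET-22b(+) library were grown overnight at 37°C or 30°C. The library randomised all eight P1ex-region intron nucleotides, the intron lying in the knt kanamycin-resistance gene, and plates were LB agar with or without 25 μg/mL kanamycin plus 100 μg/mL carbenicillin, 50 μM IPTG and 0.2% rhamnose. Pooled colonies were amplicon-sequenced on an Illumina HiSeq 2500, and fitness is the DiMSum error-weighted combination of wild-type-normalised replicate fold changes, kanamycin versus none.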

Sequence | self-splicing fitness (ln) (30 °C) | self-splicing fitness (ln) (37 °C)
UAAAAGCAAUAUUACGCGGA | -1.8 ± 0.08 | -0.32 ± 0.082
UAAAAGCAAUAUUACGCGGU | -3.58 ± 0.29 | -2.34 ± 0.27
UAAAAGCAAUAUUACGCUGG | -1.46 ± 0.13 | -1.65 ± 0.17
UAAAAGCAAUAUUACGGCUG | 0.0596 ± 0.093 | 0.0696 ± 0.12
UAAAAGCAAUAUUACGGCUU | -0.922 ± 0.088 | -0.468 ± 0.11
UAAAAGCAAUAUUACGGGAG | -2.66 ± 0.14 | -1.25 ± 0.11
UAAAAGCAAUAUUACGGUUC | -3.1 ± 0.17 | -2.42 ± 0.2
UAAAAGCAAUAUUACGUAAA | -1.34 ± 0.077 | -1.1 ± 0.09
UAAAAGCAAUAUUACGUAGG | -2 ± 0.083 | -1.22 ± 0.11
UAAAAGCAAUAUUACGUAUG | -1.07 ± 0.078 | -0.324 ± 0.095
UAAAAGCAAUAUUACGUCAA | -1.57 ± 0.11 | -1.4 ± 0.098
UAAAAGCAAUAUUACGUCUU | -0.765 ± 0.058 | -0.487 ± 0.076
UAAAAGCAAUAUUACGUGGC | -3.46 ± 0.2 | -2.74 ± 0.2
UAAAAGCAAUAUUACGUUCG | -0.052 ± 0.085 | -0.0686 ± 0.11
UAACAGCAAUAUUACGAAAA | -3.2 ± 0.21 | -1.18 ± 0.15
UAACAGCAAUAUUACGAAUU | -3.02 ± 0.13 | -1.86 ± 0.18
UAACAGCAAUAUUACGACGC | -2.37 ± 0.12 | -1.76 ± 0.16
UAACAGCAAUAUUACGACGG | -1.27 ± 0.085 | -0.26 ± 0.11
UAACAGCAAUAUUACGAGGU | -4.14 ± 0.23 | -2.58 ± 0.23

Sequence | self-splicing fitness (ln) (30 °C) | self-splicing fitness (ln) (37 °C)
UAACAGCAAUAUUACGAGUG | -0.621 ± 0.038 | -0.34 ± 0.056
UAACAGCAAUAUUACGAUGG | -1.82 ± 0.087 | -0.665 ± 0.1
UAACAGCAAUAUUACGCAAA | -3.11 ± 0.19 | -2.3 ± 0.12
UAACAGCAAUAUUACGCCCA | -0.674 ± 0.12 | 0.423 ± 0.15
UAACAGCAAUAUUACGCGCA | -0.471 ± 0.078 | 0.0314 ± 0.12
UAACAGCAAUAUUACGCGCU | -1.93 ± 0.096 | -0.612 ± 0.11
UAACAGCAAUAUUACGCUCA | -0.26 ± 0.091 | 0.174 ± 0.13
UAACAGCAAUAUUACGCUUA | -0.77 ± 0.071 | 0.122 ± 0.1
UAACAGCAAUAUUACGGAUU | -3.02 ± 0.12 | -0.666 ± 0.094
UAACAGCAAUAUUACGGCCC | -2.08 ± 0.35 | 
UAACAGCAAUAUUACGGGUA | -0.895 ± 0.061 | 0.0689 ± 0.074
UAACAGCAAUAUUACGGGUC | -3.89 ± 0.17 | -2.62 ± 0.2
UAACAGCAAUAUUACGGUCA | -0.282 ± 0.073 | 0.714 ± 0.085
UAACAGCAAUAUUACGUACC | -0.513 ± 0.19 | -1.7 ± 0.24
UAACAGCAAUAUUACGUAUU | -3.38 ± 0.14 | -1.94 ± 0.18
UAACAGCAAUAUUACGUGAA | -1.61 ± 0.065 | -0.749 ± 0.083
UAACAGCAAUAUUACGUGAG | -0.729 ± 0.046 | -0.471 ± 0.071
UAAGAGCAAUAUUACGAGUG | -3.74 ± 0.23 | -1.16 ± 0.22
